The record followed here is PMC6330308, “Light-Induced Thiol Oxidation of Recoverin Affects Rhodopsin Desensitization” (Frontiers in Molecular Neuroscience, 2018).

The labels stand for the following.
B3: Recoverin mutant C39D (natural protein, bovine)
chain: GNSKSGALSKEILEELQLNTKFTEEELSSWYQSFLKEDPSGRITRQEFQTIYSKFFPEADPKAYAQHVFRSFDANSDGTLDFKEYVIALHMTSAGKTNQKLEWAFSLYDVDGNGTISKNEVLEIVTAIFKMISPEDTKHLPEDENTPEKRAEKIWGFFGKKDDDKLTEKEFIEGTLANKEILRLIQFEPQKVKEKLKEKKL
modifications: N-terminal myristoyl group (degree of myristoylation more than 95%)

For experiment [1], the target named is N-terminal domain of GRK1 (amino acids Met1-Gly183) fused with glutathione-S-transferase (UniProt P28327). As to the kind of experiment: SPR; GST-fused N-GRK1 or 1-25GRK1 immobilised by amine coupling on ProteOn GLH chip; recoverin forms 1-40 uM as analyte; 25°C; 10 mM HEPES, 150 mM NaCl, 0.05% TWEEN 20, pH 7.4, 1 mM CaCl2, 2 mM MgCl2; global fit to heterogeneous ligand model.

Experiment [2] addresses N-terminal fragment of GRK1 (amino acids M1-S25) fused with glutathione-S-transferase (UniProt P28327). The description is as above.
The target in experiment [3] is GRK1 (rhodopsin kinase) (bovine (endogenous in ROS)) (UniProt P28327).
Experiment [4] deals with T1, Recombinant myristoylated bovine recoverin (reduced monomer) (bovine, UniProt P21457 2-202, N-terminal myristoyl group (degree of myristoylation more than 95%)).
T1 construct: recoverin, bovine, recombinant wild type, myristoylated, C39 thiol reduced; Myristoylation implies that the initiator Met is removed and Gly2 carries the myristoyl group (surmised); also called RmRec; reduced monomer of recombinant wild type recoverin; source: recombinant, prepared according to previously published procedure (Zernii et al., 2011)
T1 sequence: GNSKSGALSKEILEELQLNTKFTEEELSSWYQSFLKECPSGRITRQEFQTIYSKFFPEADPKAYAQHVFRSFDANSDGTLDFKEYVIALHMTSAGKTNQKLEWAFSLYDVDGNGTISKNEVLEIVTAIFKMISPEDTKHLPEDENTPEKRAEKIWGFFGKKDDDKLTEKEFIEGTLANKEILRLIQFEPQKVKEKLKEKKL
As to the kind of experiment: SPR; GST-fused N-GRK1 or 1-25GRK1 immobilised by amine coupling on ProteOn GLH chip; recoverin forms 1-40 uM as analyte; 25°C; 10 mM HEPES, 150 mM NaCl, 0.05% TWEEN 20, pH 7.4, 1 mM CaCl2, 2 mM MgCl2; global fit to heterogeneous ligand model. The note with it: both partners purified.

The experiment “Recoverin mutant C39D” concerns the target B3. The experiment is described as above. The note with it: both partners purified.
For experiment [5], the target named is T2, Oxidized monomer of recombinant wild type recoverin (bovine, UniProt P21457 2-202, N-terminal myristoyl group; C39 thiol oxidized (sulfenic/sulfinic acid; Figure 9 legend: C39 converted into sulfinic acid)).
T2 construct: recoverin, bovine, recombinant wild type, myristoylated, monomer with oxidized C39; also called OmRec; thiol-oxidized monomer of recoverin; source: prepared from RmRec by incubation with 0.005% H2O2 at 30°C for 5 h, separated by gel-filtration (Superdex 75)
T2 sequence: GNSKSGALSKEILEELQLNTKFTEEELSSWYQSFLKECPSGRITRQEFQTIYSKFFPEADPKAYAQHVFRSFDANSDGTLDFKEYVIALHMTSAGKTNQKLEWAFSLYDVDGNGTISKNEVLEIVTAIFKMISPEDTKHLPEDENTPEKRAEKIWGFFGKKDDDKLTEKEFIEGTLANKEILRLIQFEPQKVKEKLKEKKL
The description is as above. The note with it: both partners purified.

Another experiment addresses T3, GRK1 (rhodopsin kinase) (bovine (endogenous in ROS), UniProt P28327 1-561).
T3 sequence (looked up): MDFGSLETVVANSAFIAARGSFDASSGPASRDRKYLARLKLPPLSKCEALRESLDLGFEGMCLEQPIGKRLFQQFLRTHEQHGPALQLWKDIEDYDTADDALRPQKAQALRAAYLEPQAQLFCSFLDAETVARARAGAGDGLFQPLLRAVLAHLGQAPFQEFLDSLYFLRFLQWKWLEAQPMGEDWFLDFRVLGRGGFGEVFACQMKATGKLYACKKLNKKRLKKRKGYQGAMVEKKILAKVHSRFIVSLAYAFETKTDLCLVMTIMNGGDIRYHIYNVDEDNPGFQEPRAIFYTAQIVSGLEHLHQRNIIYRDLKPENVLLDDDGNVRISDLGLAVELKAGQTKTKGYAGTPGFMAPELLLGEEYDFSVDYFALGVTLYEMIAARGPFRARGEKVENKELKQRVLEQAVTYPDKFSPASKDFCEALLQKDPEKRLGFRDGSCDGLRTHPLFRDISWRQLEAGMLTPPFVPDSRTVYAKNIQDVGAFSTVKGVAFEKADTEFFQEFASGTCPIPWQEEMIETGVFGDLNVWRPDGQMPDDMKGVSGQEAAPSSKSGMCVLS
As to the kind of experiment: cell-based or functional assay.

On to “Disulfide dimer of recombinant wild type recoverin (from UniProt P21457 2-202) (complex)”, for which, in experiment [1], the dissociation constant Kd amounted to 31.3 µM. In experiment [2], this molecule came in with an equilibrium dissociation constant (Kd) of 31.2 µM. In experiment [3], the inhibition of GRK1 in rhodopsin phosphorylation assay, 20 uM dRec, 0.01 uM free Ca2+ was determined as 40% and the inhibition of GRK1 in rhodopsin phosphorylation assay, 20 uM dRec, 200 uM free Ca2+ amounted to 70%.

B1: N-terminal fragment of GRK1 (amino acids M1-S25) fused with glutathione-S-transferase (domain or fragment, UniProt P28327 1-25, looked up)
chain: MDFGSLETVVANSAFIAARGSFDAS
notes: GRK1 (rhodopsin kinase), fragment M1-S25; also called 1-25GRK1; 1-25RK; source: obtained according to previously published procedure (Grigoriev et al., 2012)
As for B1, the Kd in experiment [4] was found to be 10.5 µM; in the experiment with Recoverin mutant C39D, 31.3 µM; in experiment [5], 16 µM.

B2: N-terminal domain of GRK1 (amino acids Met1-Gly183) fused with glutathione-S-transferase (domain or fragment, UniProt P28327 1-183, looked up)
chain: MDFGSLETVVANSAFIAARGSFDASSGPASRDRKYLARLKLPPLSKCEALRESLDLGFEGMCLEQPIGKRLFQQFLRTHEQHGPALQLWKDIEDYDTADDALRPQKAQALRAAYLEPQAQLFCSFLDAETVARARAGAGDGLFQPLLRAVLAHLGQAPFQEFLDSLYFLRFLQWKWLEAQPMG
notes: GRK1 (rhodopsin kinase), N-terminal domain, amino acids Met1-Gly183; also called N-GRK1; N-terminal domain of rhodopsin kinase; source: obtained according to previously published procedure (Grigoriev et al., 2012)
In the case of B2, the dissociation constant Kd was 5.35 µM in experiment [4], 50.2 µM with Recoverin mutant C39D and 31.3 µM in experiment [5].

For the molecule B3, the “inhibition of GRK1 in rhodopsin phosphorylation assay, 40 uM C39D, 200 uM free Ca2+; decline of inhibitory efficiency against RmRec” value with GRK1 (rhodopsin kinase) was around 2 fold.
